From paper PMC9478129 come the findings set out here.

The test system of data set [1] is Aa-Cascade Avi-Cas6f, mSav-ATTO647N labelled (Aggregatibacter actinomycetemcomitans). The data set can be described thus: single-molecule DNA curtains. Particulars: EMSA: 1x TAE, 200 mM NaCl, 10% glycerol, 0.1 mg/mL BSA, 20 nM DNA, 37 C (22 C for AcrIF9 mutants), 1% agarose, footprint: same buffer, 2 mM KMnO4, AFM: …. For orientation: Mobility shift assays separate free from complexed probe on a gel.

The test system of data set [2] is Aa-Cascade Avi-Cas6f, mSav-ATTO647N labelled;Aa1-AcrIF9 (Aggregatibacter actinomycetemcomitans;Aggregatibacter actinomycetemcomitans?). The data set is described as follows: single-molecule DNA curtains. Particulars: with AcrIF9, mean off-target dwell time 18.6 s, EMSA: 1x TAE, 200 mM NaCl, 10% glycerol, 0.1 mg/mL BSA, 20 nM DNA, 37 C (22 C for AcrIF9 mutants), 1% agarose, footprint: same buffer, 2 mM KMnO4, AFM: ….

Regarding bacteriophage lambda DNA with target, the binding signal (% on-target events) in data set [1] was 18; in data set [2], 8.
